# Test results taken from IntAct's records for PubMed 16865698.
# B1: Mothers against decapentaplegic homolog 4 (Homo sapiens), Q13485 (parent)
# chain: MDNMSITNTPTSNDACLSIVHSLMCHRQGGESETFAKRAIESLVKKLKEKKDELDSLITAITTNGAHPSKCVTIQRTLDGRLQVAGRKGFPHVIYARLWRWPDLHKNELKHVKYCQYAFDLKCDSVCVNPYHYERVVSPGIDLSGLTLQSNAPSSMMVKDEYVHDFEGQPSLSTEGHSIQTIQHPPSNRASTETYSTPALLAPSESNATSTANFPNIPVASTSQPASILGGSHSEGLLQIASGPQPGQQQNGFTGQPATYHHNSTTTWTGSRTAPYTPNLPHHQNGHLQHHPPMPPHPGHYWPVHNELAFQPPISNHPAPEYWCSIAYFEMDVQVGETFKVPSSCPIVTVDGYVDPSGGDRFCLGQLSNVHRTEAIERARLHIGKGVQLECKGEGDVWVRCLSDHAVFVQSYYLDREAGRAPGDAVHKIYPSAYIKVFDLRQCHRQMQQQAATAQAAAAAQAAAVAGNIPGPGSVGGIAPAISLSAAAGIGVDDLRRLCILRMSFVKGWGPDYPRQSIKETPCWIEIHLHRALQLLDEVLHTMPIADPQPLD
# Variants of: B1
# Conditions: with fbw1a_human BTRC
row,Variant,effect of a mutation on the interaction
1,P102L,with no effect

# Variants of: B1
# Conditions: with skp2_human SKP2, Q13309
# Sequence of skp2_human SKP2, Q13309 (Q13309 whole entry): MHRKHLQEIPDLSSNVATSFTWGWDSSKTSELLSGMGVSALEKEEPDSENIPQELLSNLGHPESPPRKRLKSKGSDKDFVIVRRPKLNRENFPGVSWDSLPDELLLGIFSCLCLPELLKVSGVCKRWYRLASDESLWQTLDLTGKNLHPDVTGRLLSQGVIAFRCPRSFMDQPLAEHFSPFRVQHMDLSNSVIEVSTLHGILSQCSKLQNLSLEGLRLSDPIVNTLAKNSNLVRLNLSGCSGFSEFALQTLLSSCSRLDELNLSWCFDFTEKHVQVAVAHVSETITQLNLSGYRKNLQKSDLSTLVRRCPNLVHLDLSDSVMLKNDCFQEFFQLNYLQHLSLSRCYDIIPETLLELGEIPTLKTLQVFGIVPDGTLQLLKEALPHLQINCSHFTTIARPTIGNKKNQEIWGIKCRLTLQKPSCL
row,Variant,effect of a mutation on the interaction
1,P102L,disrupting interaction strength
